Laboratory results from article PMC3156286 (Journal of molecular biology, 2011).

Biological target: the molecule itself
Assay: SEC

B1: full length Nhp2p (natural protein, S. cerevisiae, UniProt P32495 1-156, looked up)
chain: MGKDNKEHKESKESKTVDNYEARMPAVLPFAKPLASKKLNKKVLKTVKKASKAKNVKRGVKEVVKALRKGEKGLVVIAGDISPADVISHIPVLCEDHSVPYIFIPSKQDLGAAGATKRPTSVVFIVPGSNKKKDGKNKEEEYKESFNEVVKEVQAL
- stoichiometry N: 2
